Results on 12 molecules are retold here after US20240182582A1 (Janssen / Centocor, published 2024).

For test [1], the target named is T1, BCMA (UniProt Q02223 1-184, limits assumed).
T1 sequence (looked up): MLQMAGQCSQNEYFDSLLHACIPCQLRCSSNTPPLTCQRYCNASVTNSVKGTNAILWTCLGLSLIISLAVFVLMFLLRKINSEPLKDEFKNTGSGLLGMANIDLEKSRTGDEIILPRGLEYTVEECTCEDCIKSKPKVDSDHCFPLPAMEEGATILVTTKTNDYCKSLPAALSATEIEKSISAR
Briefly: cell-based or functional assay.

Test [2] deals with NKp46 on NKL cells / NK cells (human, UniProt O76036 22-304). The test is described as follows: cell-based or functional assay.
Sequence of NKp46 on NKL cells / NK cells (O76036 22-304): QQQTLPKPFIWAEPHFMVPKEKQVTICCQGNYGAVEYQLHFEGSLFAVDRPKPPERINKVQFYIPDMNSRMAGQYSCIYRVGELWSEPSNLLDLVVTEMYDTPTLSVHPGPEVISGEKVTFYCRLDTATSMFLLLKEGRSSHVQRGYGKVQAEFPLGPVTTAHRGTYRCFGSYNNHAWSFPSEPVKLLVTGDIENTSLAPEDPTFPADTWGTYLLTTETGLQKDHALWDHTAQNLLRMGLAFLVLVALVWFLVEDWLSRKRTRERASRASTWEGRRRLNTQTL
The target in test [3] is T2, NKGW1 (human NKG2d80-216 extracellular region with N-term hexahistidine tag) (human, UniProt P26718 80-216).
T2 construct: also called human NKG2d (NKGW1)
T2 sequence: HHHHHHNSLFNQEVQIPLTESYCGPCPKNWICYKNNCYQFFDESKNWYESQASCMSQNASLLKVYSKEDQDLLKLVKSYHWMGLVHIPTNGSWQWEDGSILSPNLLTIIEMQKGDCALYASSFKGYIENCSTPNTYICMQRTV
The test is described as follows: surface plasmon resonance.

Test [4] deals with T3, Cyno NKG2d (NKGW2.001) (cynomolgus monkey, UniProt P61252 80-216, limits assumed).
T3 sequence (looked up): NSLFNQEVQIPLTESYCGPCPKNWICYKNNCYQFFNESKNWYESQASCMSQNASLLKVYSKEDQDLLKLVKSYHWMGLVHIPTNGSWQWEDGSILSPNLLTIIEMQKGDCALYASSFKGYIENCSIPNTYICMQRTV
The test is described as follows: surface plasmon resonance. (In general: SPR reads the build-up and loss of mass on a sensor chip optically.)

In test [5] the target is T4, N46W3 (NKp46 D1) (UniProt O76036 22-120, limits assumed).
T4 construct: domain: D1
T4 sequence (O76036 22-120 limits assumed): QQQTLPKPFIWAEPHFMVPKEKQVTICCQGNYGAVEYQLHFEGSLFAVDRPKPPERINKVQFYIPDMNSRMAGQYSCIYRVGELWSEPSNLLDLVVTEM
The test is described as follows: binding kinetics, method not named.

The target of test [6] is GPRC5d (UniProt Q9NZD1 1-345, limits assumed). Briefly: cell-based or functional assay.
Sequence of GPRC5d (Q9NZD1 whole entry): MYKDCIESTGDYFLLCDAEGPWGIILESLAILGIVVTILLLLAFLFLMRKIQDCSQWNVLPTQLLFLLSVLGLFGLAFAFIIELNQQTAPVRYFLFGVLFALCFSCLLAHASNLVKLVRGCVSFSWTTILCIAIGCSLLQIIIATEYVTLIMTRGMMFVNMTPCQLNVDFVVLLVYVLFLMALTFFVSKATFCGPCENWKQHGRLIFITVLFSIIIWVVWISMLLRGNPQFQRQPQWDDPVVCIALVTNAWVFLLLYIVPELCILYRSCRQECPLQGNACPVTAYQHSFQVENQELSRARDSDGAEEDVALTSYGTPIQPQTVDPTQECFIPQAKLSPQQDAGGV

Changes are numbered by the printed parent chain.

B1: N46BB4 (bispecific antibody, human IgG1, kappa)
heavy: QLQLQESGPGPVRPSETLSLTCTVSGDSIRSSSYYWGWIRQPPGKGLDWIGSIYYTGSTYYNPSLMSRVTISVDTSKNQFSLKLSSVTAADTAVYYCASPGYSSGWSIDYWGQGTLVTVSSASTKGPSVFPLAPSSKSTSGGTAALGCLVKDYFPEPVTVSWNSGALTSGVHTFPAVLQSSGLYSLSSVVTVPSSSLGTQTYICNVNHKPSNTKVDKKVEPKSCDKTHTCPPCPAPELLGGPSVFLFPPKPKDTLMISRTPEVTCVVVDVSHEDPEVKFNWYVDGVEVHNAKTKPREEQYNSTYRVVSVLTVLHQDWLNGKEYKCKVSNKALPAPIEKTISKAKGQPREPQVYVYPPSREEMTKNQVSLTCLVKGFYPSDIAVEWESNGQPENNYKTTPPVLDSDGSFALVSKLTVDKSRWQQGNVFSCSVMHEALHNHYTQKSLSLSPGK
light: DIQLTQSPSFLSASVGDRVTITCRASQGISSYLAWYQQKPGKAPKLLIYVASTLQSGVPSRFSGSGSGTEFTLTISSLQPEDFATYYCQQLNSYPRMTFGGGTKVEIKRTVAAPSVFIFPPSDEQLKSGTASVVCLLNNFYPREAKVQWKVDNALQSGNSQESVTEQDSKDSTYSLSSTLTLSKADYEKHKVYACEVTHQGLSSPVTKSFNRGEC
chain: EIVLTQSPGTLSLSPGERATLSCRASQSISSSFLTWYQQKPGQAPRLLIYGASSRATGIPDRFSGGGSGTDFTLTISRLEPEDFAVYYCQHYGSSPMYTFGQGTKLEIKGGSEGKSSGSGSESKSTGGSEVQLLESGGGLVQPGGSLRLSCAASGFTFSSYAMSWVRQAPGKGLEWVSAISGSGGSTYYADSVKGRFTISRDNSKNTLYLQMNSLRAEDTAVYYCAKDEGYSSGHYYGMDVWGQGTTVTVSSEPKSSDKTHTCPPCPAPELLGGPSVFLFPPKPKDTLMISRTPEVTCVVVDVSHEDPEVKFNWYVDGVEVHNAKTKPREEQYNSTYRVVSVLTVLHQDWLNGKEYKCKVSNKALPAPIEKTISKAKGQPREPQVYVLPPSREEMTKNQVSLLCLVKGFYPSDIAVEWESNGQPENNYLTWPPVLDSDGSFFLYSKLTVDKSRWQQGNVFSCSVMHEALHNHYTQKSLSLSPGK
As to B1, the “IC50 for BsAb cytotoxicity, H929/GFP target cells with PBMC effectors” value (“IC50 … H929/GFP target cells with PBMC effectors” for short) in test [1] turned out to be 0.00153 nM.

B2: N46BB14 (bispecific antibody, human IgG1, kappa, L234A L235A)
heavy: B1 heavy with L238A, L239A, D269S, V354T, Y355L, T370W, A409F, V411Y, H439R, Y440F
light: B1 light
chain: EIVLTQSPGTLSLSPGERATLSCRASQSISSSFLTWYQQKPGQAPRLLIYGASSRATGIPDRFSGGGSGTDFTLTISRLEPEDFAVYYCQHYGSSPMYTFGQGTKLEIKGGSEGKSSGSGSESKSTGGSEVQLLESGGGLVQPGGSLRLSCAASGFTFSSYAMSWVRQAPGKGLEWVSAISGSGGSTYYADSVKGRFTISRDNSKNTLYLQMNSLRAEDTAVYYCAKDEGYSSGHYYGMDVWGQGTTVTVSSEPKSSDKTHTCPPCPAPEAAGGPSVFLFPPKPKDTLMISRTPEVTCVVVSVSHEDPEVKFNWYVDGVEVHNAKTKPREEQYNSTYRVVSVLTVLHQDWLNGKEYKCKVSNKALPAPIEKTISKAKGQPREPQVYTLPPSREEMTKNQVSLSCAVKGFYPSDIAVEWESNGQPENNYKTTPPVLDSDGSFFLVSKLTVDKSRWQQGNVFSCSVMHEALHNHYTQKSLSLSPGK
With B2, the “EC50 of cytotoxicity (hypoxia study, PBMC on MM1R/GFP cells, 48-hour endpoint)” value in test [2] is about 1.19 nM.

B3: N46BB10.AFU (bispecific antibody, human IgG1, kappa)
heavy: B1 heavy with V354T, Y355L, T370W, A409F, V411Y, H439R, Y440F
light: B1 light
chain: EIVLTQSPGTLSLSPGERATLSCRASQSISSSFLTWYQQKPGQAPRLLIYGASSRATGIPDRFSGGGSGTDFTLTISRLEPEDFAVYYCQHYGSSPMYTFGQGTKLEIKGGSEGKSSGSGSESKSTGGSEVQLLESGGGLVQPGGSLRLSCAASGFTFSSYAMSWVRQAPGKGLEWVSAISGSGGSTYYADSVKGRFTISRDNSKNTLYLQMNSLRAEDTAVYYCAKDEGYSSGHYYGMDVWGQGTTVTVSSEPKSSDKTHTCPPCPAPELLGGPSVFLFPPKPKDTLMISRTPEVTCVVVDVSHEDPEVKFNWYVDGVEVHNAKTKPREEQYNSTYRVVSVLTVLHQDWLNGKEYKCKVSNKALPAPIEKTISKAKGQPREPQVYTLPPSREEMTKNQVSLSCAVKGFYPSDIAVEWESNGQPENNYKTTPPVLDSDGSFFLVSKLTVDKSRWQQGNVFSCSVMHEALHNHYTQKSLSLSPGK
For the molecule B3, in test [2], the “EC50 of cytotoxicity (hypoxia study, PBMC on MM1R/GFP cells)” value amounted to 0.006 nM.

B4: N46BB10 (bispecific antibody, human IgG1, kappa)
heavy: B1 heavy with V354T, Y355L, T370W, A409F, V411Y, H439R, Y440F
light: B1 light
chain: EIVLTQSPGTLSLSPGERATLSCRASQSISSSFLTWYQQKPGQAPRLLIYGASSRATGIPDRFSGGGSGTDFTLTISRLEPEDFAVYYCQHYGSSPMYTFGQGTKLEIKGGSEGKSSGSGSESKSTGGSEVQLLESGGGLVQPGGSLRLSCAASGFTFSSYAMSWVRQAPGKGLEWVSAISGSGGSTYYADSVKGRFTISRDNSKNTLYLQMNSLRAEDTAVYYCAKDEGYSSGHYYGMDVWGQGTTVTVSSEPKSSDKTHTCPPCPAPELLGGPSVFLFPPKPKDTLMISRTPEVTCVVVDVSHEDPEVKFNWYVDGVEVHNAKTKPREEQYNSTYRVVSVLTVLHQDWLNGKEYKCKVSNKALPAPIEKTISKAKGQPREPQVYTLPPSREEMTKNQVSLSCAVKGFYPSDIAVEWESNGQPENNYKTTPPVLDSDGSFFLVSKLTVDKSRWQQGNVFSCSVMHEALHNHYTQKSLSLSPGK
With B4, the “EC50 of cytotoxicity (hypoxia study, PBMC on MM1R/GFP cells)” value in test [2] was about 0.07 nM.

B5: NKGB125 (antibody, human IgG1, V domains shown)
VH: EVQLLESGGGLVQPGGSLRLSCAASGFTFSIYAMTWVRQAPGKGLEWVSIISGSGDHTFYADSVKGRFTISRDNSRNTLYLQMDSLRAEDTAVYYCAKEGKWVQLSHFANWGQGTLVTVSS
VL: SYVLTQPPSVSVAPGQTARITCGGNNIGSKSVHWYQQKAGQAPVLVVYDDSDRPSGIPERFSGSNSGNTATLTISRVEAGDEADYYCQVWDGRSDHVVFGGGTKLTVL
notes: OmniRat hybridoma clone; v-regions cloned into human IgG1 sigma and lambda constant regions; also called NKGB125.002; NKGY1_045_F04
As usually defined, the Kd is the constant that tells how readily two partners part at equilibrium. Higher therefore signals a looser complex. The koff is the rate constant with which the complex falls apart. Higher therefore signals fast dissociation. As usually defined, the kon is the second-order rate constant of association. Lower therefore signals slower complex formation. In test [3], B5 came in with an equilibrium dissociation constant (Kd) of 0.05 nM, a koff of 3.85e-05 s⁻¹ and a kon of 751000 M⁻¹ s⁻¹. In test [4], this molecule showed a dissociation constant Kd of 0.1 nM, a koff of 5.84e-05 s⁻¹ and an on-rate (kon) of 571000 M⁻¹ s⁻¹.

B6: N46B105 (antibody, V domains shown)
VH: QLQLQESGPGPVRPSETLSLTCTVSGDSIRSSSYYWGWIRQPPGKGLDWIGSIYYTGSTYYNPSLMSRVTISVDTSKNQFSLKLSSVTAADTAVYYCASPGYSSGWSIDYWGQGTLVTVSS
VL: DIQLTQSPSFLSASVGDRVTITCRASQGISSYLAWYQQKPGKAPKLLIYVASTLQSGVPSRFSGSGSGTEFTLTISSLQPEDFATYYCQQLNSYPRMTFGGGTKVEIK
notes: also called VR000044289
B6 came in with a Kd in test [5] of 3.5 nM.

B7: NKGB83 (antibody, human IgG1, V domains shown)
VH: EVQLVQSGAEVKKPGESLKISCKGSGYSFTSYWIGWVRQMPGKGLEWMGIIYPGDSYTRYSPSFQGQVTISADKSISTAYLQWSSLKASDTAMYYCARGGVSASGNYRALDYWGQGTLVTVSS
VL: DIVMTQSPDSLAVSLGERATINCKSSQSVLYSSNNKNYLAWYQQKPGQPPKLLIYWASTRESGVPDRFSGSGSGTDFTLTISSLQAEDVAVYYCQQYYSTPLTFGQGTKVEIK
notes: phage display panel; v-regions cloned into silent human IgG1/kappa constant regions; also called NKGB83.002
In test [3], B7 gave a Kd of 8.2 nM, a koff of 0.000941 s⁻¹ and a kon of 114000 M⁻¹ s⁻¹. Besides, in test [4], the dissociation constant Kd came to 27.4 nM, the koff stood at 0.00212 s⁻¹ and the kon turned out to be 77600 M⁻¹ s⁻¹.

B8: NG2BB9 (bispecific antibody, human IgG1, kappa)
heavy: EVQLVQSGAEVKKPGESLKISCKGSGYSFTSYWIGWVRQMPGKGLEWMGIIYPGDSYTRYSPSFQGQVTISADKSISTAYLQWSSLKASDTAMYYCARGGVSASGNYRALDYWGQGTLVTVSSASTKGPSVFPLAPSSKSTSGGTAALGCLVKDYFPEPVTVSWNSGALTSGVHTFPAVLQSSGLYSLSSVVTVPSSSLGTQTYICNVNHKPSNTKVDKKVEPKSCDKTHTCPPCPAPELLGGPSVFLFPPKPKDTLMISRTPEVTCVVVDVSHEDPEVKFNWYVDGVEVHNAKTKPREEQYNSTYRVVSVLTVLHQDWLNGKEYKCKVSNKALPAPIEKTISKAKGQPREPQVYVYPPSREEMTKNQVSLTCLVKGFYPSDIAVEWESNGQPENNYKTTPPVLDSDGSFALVSKLTVDKSRWQQGNVFSCSVMHEALHNHYTQKSLSLSPGK
light: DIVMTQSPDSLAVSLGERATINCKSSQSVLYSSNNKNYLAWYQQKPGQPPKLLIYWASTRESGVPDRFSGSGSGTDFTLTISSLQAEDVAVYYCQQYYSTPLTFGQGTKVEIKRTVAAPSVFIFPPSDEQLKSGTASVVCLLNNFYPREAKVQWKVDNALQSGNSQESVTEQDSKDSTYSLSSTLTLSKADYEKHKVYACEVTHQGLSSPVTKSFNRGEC
chain: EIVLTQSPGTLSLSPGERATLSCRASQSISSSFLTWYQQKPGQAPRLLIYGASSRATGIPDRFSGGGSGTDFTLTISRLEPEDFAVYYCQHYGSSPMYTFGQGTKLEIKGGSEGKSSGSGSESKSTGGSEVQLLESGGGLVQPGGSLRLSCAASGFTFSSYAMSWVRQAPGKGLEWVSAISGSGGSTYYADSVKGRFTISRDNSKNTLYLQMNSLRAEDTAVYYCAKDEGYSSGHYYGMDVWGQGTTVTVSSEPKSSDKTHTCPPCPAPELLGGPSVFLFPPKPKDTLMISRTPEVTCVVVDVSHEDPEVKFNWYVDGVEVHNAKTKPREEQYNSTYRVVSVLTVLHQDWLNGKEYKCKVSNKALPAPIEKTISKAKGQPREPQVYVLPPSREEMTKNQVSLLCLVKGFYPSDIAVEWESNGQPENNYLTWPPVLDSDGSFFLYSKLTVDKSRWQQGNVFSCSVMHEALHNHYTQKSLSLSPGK
Consider B8, for which the “IC50 … H929/GFP target cells with PBMC effectors” value in test [1] came out at 0.00722 nM.

B9: NG2GB24 (bispecific antibody, human IgG1, kappa)
heavy: B8 heavy
light: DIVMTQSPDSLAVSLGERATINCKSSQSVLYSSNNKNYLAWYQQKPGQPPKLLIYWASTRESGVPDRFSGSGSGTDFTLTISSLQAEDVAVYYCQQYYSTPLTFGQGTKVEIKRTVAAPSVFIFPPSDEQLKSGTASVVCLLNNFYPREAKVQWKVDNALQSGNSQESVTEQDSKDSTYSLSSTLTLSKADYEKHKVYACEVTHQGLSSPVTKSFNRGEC
chain: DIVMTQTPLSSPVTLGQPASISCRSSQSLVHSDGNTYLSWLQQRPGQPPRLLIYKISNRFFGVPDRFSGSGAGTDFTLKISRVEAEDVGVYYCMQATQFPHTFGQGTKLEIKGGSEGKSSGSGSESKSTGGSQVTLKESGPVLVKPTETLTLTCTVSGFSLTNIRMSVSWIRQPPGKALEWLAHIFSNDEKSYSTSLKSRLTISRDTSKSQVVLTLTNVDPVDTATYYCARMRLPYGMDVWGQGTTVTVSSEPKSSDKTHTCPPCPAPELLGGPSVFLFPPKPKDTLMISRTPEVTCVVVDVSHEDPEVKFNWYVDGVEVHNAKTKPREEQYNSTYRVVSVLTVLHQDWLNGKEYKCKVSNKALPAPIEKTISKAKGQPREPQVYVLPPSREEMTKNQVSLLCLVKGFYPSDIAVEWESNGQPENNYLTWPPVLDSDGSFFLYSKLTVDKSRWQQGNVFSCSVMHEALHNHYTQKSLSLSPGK
B9: the “IC50 … H929/GFP target cells with PBMC effectors” value in test [6] amounted to 0.0144 nM.

B10: NG2GB19 (bispecific antibody, human IgG1, lambda)
heavy: not shown
light: SYVLTQPPSVSVAPGQTARITCGGNNIGSKSVHWYQQKAGQAPVLVVYDDSDRPSGIPERFSGSNSGNTATLTISRVEAGDEADYYCQVWDGRSDHVVFGGGTKLTVLGQPKAAPSVTLFPPSSEELQANKATLVCLISDFYPGAVTVAWKADSSPVKAGVETTTPSKQSNNKYAASSYLSLTPEQWKSHRSYSCQVTHEGSTVEKTVAPTECS
For B10, the “IC50 … H929/GFP target cells with PBMC effectors” value in test [6] stood at 0.0199 nM.

B11: NG2GB23 (bispecific antibody, human IgG1, lambda)
heavy: EVQLLESGGGLVQPGGSLRLSCAASGFTFSIYAMTWVRQAPGKGLEWVSIISGSGDHTFYADSVKGRFTISRDNSRNTLYLQMDSLRAEDTAVYYCAKEGKWVQLSHFANWGQGTLVTVSSASTKGPSVFPLAPSSKSTSGGTAALGCLVKDYFPEPVTVSWNSGALTSGVHTFPAVLQSSGLYSLSSVVTVPSSSLGTQTYICNVNHKPSNTKVDKKVEPKSCDKTHTCPPCPAPELLGGPSVFLFPPKPKDTLMISRTPEVTCVVVDVSHEDPEVKFNWYVDGVEVHNAKTKPREEQYNSTYRVVSVLTVLHQDWLNGKEYKCKVSNKALPAPIEKTISKAKGQPREPQVYVYPPSREEMTKNQVSLTCLVKGFYPSDIAVEWESNGQPENNYKTTPPVLDSDGSFALVSKLTVDKSRWQQGNVFSCSVMHEALHNHYTQKSLSLSPGK
light: B10 light
chain: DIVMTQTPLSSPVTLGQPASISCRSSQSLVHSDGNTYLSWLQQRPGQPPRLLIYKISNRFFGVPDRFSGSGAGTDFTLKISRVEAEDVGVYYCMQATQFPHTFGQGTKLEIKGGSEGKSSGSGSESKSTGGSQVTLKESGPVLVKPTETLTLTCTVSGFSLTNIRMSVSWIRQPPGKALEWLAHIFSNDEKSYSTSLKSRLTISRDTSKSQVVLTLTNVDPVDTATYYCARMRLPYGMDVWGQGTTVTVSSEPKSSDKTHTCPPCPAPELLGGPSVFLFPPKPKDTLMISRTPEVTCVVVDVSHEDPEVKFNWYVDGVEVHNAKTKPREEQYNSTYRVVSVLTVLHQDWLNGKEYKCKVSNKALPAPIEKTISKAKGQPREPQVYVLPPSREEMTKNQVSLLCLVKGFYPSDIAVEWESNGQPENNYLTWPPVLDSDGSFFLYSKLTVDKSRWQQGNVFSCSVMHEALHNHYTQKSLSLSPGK
Regarding B11, the “IC50 … H929/GFP target cells with PBMC effectors” value in test [6] is 0.00337 nM.

B12: NG2BB10 (bispecific antibody, human IgG1, lambda)
heavy: B11 heavy
light: B10 light
chain: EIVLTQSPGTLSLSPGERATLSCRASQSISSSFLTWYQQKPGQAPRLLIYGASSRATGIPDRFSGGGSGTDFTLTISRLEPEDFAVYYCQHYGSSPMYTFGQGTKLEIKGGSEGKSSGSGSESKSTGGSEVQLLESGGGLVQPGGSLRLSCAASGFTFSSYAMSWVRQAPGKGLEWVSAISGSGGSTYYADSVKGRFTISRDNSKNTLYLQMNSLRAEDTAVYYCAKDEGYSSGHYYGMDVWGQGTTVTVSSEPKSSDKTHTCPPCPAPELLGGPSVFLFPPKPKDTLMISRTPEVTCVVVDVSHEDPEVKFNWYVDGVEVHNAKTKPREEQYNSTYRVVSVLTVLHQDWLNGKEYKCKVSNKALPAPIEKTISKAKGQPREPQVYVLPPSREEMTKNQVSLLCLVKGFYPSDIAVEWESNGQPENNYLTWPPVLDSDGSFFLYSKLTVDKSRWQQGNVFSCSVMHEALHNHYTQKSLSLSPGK
As to B12, in test [1], the “IC50 … H929/GFP target cells with PBMC effectors” value worked out at 0.0209 nM.
